Reference: patent US20170283834A1, “Processes for Producing A Fermentation Product Using A Fermenting Organism” (Novozymes A/S, priority 2014, published 2017)

System: zein
Assay: Relative activity assay of protease variants (zein micro titer plate)
Format: biochemical
Conditions: for Relative activity 65° C./60° C.: Table 2
Protocol: Each well contains 200 microL of 0.05-0.1% of zein (Sigma), 0.25 mM ZnSO4 and 1% of agar in 20 mM sodium acetate buffer, pH 4.5.
Yeast clones on SC-glucose were inoculated to a well of a 96-well micro titre plate containing YPD+Zn medium and cultivated at 28° C. for 3 days. The culture supernatants were applied to a 96-well zein micro titer plate and incubated at at least 2 temperatures (ex. 60° C. and 65° C., 70° C. and 75° C., 70° C. and 80° C.) for more than 4 hours or overnight. The turbidity of zein in the plate was measured as A630 and the relative activity (higher/lower temperatures) was determined as an indicator of thermoactivity improvement. The clones with higher relative activity than the parental variant were selected and the sequence was determined.

B1: JTP005: protease variant of SEQ ID NO: 3: A112P (protein, listed as Thermoascus aurantiacus)
chain: MRLVASLTALVALSVPVFPAAVNVKRASSYLEITLSQVSNTLIKAVVQNTGSDELSFVHLNFFKDPAPVKKVSVYRDGSEVQFEGILSRYKSTGLSRDAFTYLAPGESVEDVFDIASTYDLTSGGPVTIRTEGVVPYATANSTDIAGYISYSSNVLTIDVDGAAAATVSKAITPLDRRTRISSCSGSRQSALTTALRNAASLANAAADAAQSGSASKFSEYFKTTSSSTRQTVAARLRAVAREASSSSSGATTYYCDDPYGYCSSNVLAYTLPSYNIIANCDIFYTYLPPLTSTCHAQDQATTALHEFTHAPGVYSPGTDDLAYGYQAAMGLSSSQAVMNADTYALYANAIYLGC
Relative activity 65° C./60° C.: 43%

B2: JTP036: protease variant of SEQ ID NO: 3: D79L/S87P/D142L (protein, listed as Thermoascus aurantiacus)
chain: MRLVASLTALVALSVPVFPAAVNVKRASSYLEITLSQVSNTLIKAVVQNTGSDELSFVHLNFFKDPAPVKKVSVYRDGSEVQFEGILSRYKSTGLSRDAFTYLAPGESVEDVFDIASTYDLTSGGPVTIRTEGVVPYATANSTDIAGYISYSSNVLTIDVDGAAAATVSKAITPLDRRTRISSCSGSRQSALTTALRNAASLANAAADAAQSGSASKFSEYFKTTSSSTRQTVAARLRAVAREASSSSSGATTYYCLDPYGYCSPNVLAYTLPSYNIIANCDIFYTYLPALTSTCHAQDQATTALHEFTHAPGVYSPGTLDLAYGYQAAMGLSSSQAVMNADTYALYANAIYLGC
Relative activity 70° C./65° C. (Table 3): 73%
Relative activity 75° C./65° C. (Table 3): 73%

B3: JTP012: protease variant of SEQ ID NO: 3: D79L/S87P (protein, listed as Thermoascus aurantiacus)
chain: MRLVASLTALVALSVPVFPAAVNVKRASSYLEITLSQVSNTLIKAVVQNTGSDELSFVHLNFFKDPAPVKKVSVYRDGSEVQFEGILSRYKSTGLSRDAFTYLAPGESVEDVFDIASTYDLTSGGPVTIRTEGVVPYATANSTDIAGYISYSSNVLTIDVDGAAAATVSKAITPLDRRTRISSCSGSRQSALTTALRNAASLANAAADAAQSGSASKFSEYFKTTSSSTRQTVAARLRAVAREASSSSSGATTYYCLDPYGYCSPNVLAYTLPSYNIIANCDIFYTYLPALTSTCHAQDQATTALHEFTHAPGVYSPGTDDLAYGYQAAMGLSSSQAVMNADTYALYANAIYLGC
Relative activity 65° C./60° C.: 86%

B4: JTP009: protease variant of SEQ ID NO: 3: D79K (protein, listed as Thermoascus aurantiacus)
chain: MRLVASLTALVALSVPVFPAAVNVKRASSYLEITLSQVSNTLIKAVVQNTGSDELSFVHLNFFKDPAPVKKVSVYRDGSEVQFEGILSRYKSTGLSRDAFTYLAPGESVEDVFDIASTYDLTSGGPVTIRTEGVVPYATANSTDIAGYISYSSNVLTIDVDGAAAATVSKAITPLDRRTRISSCSGSRQSALTTALRNAASLANAAADAAQSGSASKFSEYFKTTSSSTRQTVAARLRAVAREASSSSSGATTYYCKDPYGYCSSNVLAYTLPSYNIIANCDIFYTYLPALTSTCHAQDQATTALHEFTHAPGVYSPGTDDLAYGYQAAMGLSSSQAVMNADTYALYANAIYLGC
Relative activity 65° C./60° C.: 69%

B5: JTP011: protease variant of SEQ ID NO: 3: D79M (protein, listed as Thermoascus aurantiacus)
chain: MRLVASLTALVALSVPVFPAAVNVKRASSYLEITLSQVSNTLIKAVVQNTGSDELSFVHLNFFKDPAPVKKVSVYRDGSEVQFEGILSRYKSTGLSRDAFTYLAPGESVEDVFDIASTYDLTSGGPVTIRTEGVVPYATANSTDIAGYISYSSNVLTIDVDGAAAATVSKAITPLDRRTRISSCSGSRQSALTTALRNAASLANAAADAAQSGSASKFSEYFKTTSSSTRQTVAARLRAVAREASSSSSGATTYYCMDPYGYCSSNVLAYTLPSYNIIANCDIFYTYLPALTSTCHAQDQATTALHEFTHAPGVYSPGTDDLAYGYQAAMGLSSSQAVMNADTYALYANAIYLGC
Relative activity 65° C./60° C.: 73%

B6: JTP008: protease variant of SEQ ID NO: 3: R2P (protein, listed as Thermoascus aurantiacus)
chain: MRLVASLTALVALSVPVFPAAVNVKRASSYLEITLSQVSNTLIKAVVQNTGSDELSFVHLNFFKDPAPVKKVSVYRDGSEVQFEGILSRYKSTGLSRDAFTYLAPGESVEDVFDIASTYDLTSGGPVTIRTEGVVPYATANSTDIAGYISYSSNVLTIDVDGAAAATVSKAITPLDRRTPISSCSGSRQSALTTALRNAASLANAAADAAQSGSASKFSEYFKTTSSSTRQTVAARLRAVAREASSSSSGATTYYCDDPYGYCSSNVLAYTLPSYNIIANCDIFYTYLPALTSTCHAQDQATTALHEFTHAPGVYSPGTDDLAYGYQAAMGLSSSQAVMNADTYALYANAIYLGC
Relative activity 65° C./60° C.: 71%

B7: JTP021: protease variant of SEQ ID NO: 3: M152R (protein, listed as Thermoascus aurantiacus)
chain: MRLVASLTALVALSVPVFPAAVNVKRASSYLEITLSQVSNTLIKAVVQNTGSDELSFVHLNFFKDPAPVKKVSVYRDGSEVQFEGILSRYKSTGLSRDAFTYLAPGESVEDVFDIASTYDLTSGGPVTIRTEGVVPYATANSTDIAGYISYSSNVLTIDVDGAAAATVSKAITPLDRRTRISSCSGSRQSALTTALRNAASLANAAADAAQSGSASKFSEYFKTTSSSTRQTVAARLRAVAREASSSSSGATTYYCDDPYGYCSSNVLAYTLPSYNIIANCDIFYTYLPALTSTCHAQDQATTALHEFTHAPGVYSPGTDDLAYGYQAARGLSSSQAVMNADTYALYANAIYLGC
Relative activity 65° C./60° C.: 59%

B8: JTP014: protease variant of SEQ ID NO: 3: D79L/S87P/A112P (protein, listed as Thermoascus aurantiacus)
chain: MRLVASLTALVALSVPVFPAAVNVKRASSYLEITLSQVSNTLIKAVVQNTGSDELSFVHLNFFKDPAPVKKVSVYRDGSEVQFEGILSRYKSTGLSRDAFTYLAPGESVEDVFDIASTYDLTSGGPVTIRTEGVVPYATANSTDIAGYISYSSNVLTIDVDGAAAATVSKAITPLDRRTRISSCSGSRQSALTTALRNAASLANAAADAAQSGSASKFSEYFKTTSSSTRQTVAARLRAVAREASSSSSGATTYYCLDPYGYCSPNVLAYTLPSYNIIANCDIFYTYLPPLTSTCHAQDQATTALHEFTHAPGVYSPGTDDLAYGYQAAMGLSSSQAVMNADTYALYANAIYLGC
Relative activity 65° C./60° C.: 88%

B9: JTP010: protease variant of SEQ ID NO: 3: D79L (protein, listed as Thermoascus aurantiacus)
chain: MRLVASLTALVALSVPVFPAAVNVKRASSYLEITLSQVSNTLIKAVVQNTGSDELSFVHLNFFKDPAPVKKVSVYRDGSEVQFEGILSRYKSTGLSRDAFTYLAPGESVEDVFDIASTYDLTSGGPVTIRTEGVVPYATANSTDIAGYISYSSNVLTIDVDGAAAATVSKAITPLDRRTRISSCSGSRQSALTTALRNAASLANAAADAAQSGSASKFSEYFKTTSSSTRQTVAARLRAVAREASSSSSGATTYYCLDPYGYCSSNVLAYTLPSYNIIANCDIFYTYLPALTSTCHAQDQATTALHEFTHAPGVYSPGTDDLAYGYQAAMGLSSSQAVMNADTYALYANAIYLGC
Relative activity 65° C./60° C.: 75%

B10: JTP004: protease variant of SEQ ID NO: 3: S87P (protein, listed as Thermoascus aurantiacus)
chain: MRLVASLTALVALSVPVFPAAVNVKRASSYLEITLSQVSNTLIKAVVQNTGSDELSFVHLNFFKDPAPVKKVSVYRDGSEVQFEGILSRYKSTGLSRDAFTYLAPGESVEDVFDIASTYDLTSGGPVTIRTEGVVPYATANSTDIAGYISYSSNVLTIDVDGAAAATVSKAITPLDRRTRISSCSGSRQSALTTALRNAASLANAAADAAQSGSASKFSEYFKTTSSSTRQTVAARLRAVAREASSSSSGATTYYCDDPYGYCSPNVLAYTLPSYNIIANCDIFYTYLPALTSTCHAQDQATTALHEFTHAPGVYSPGTDDLAYGYQAAMGLSSSQAVMNADTYALYANAIYLGC
Relative activity 65° C./60° C.: 45%

B11: JTP013: protease variant of SEQ ID NO: 3: D79L/S87P/A112P (protein, listed as Thermoascus aurantiacus)
chain: MRLVASLTALVALSVPVFPAAVNVKRASSYLEITLSQVSNTLIKAVVQNTGSDELSFVHLNFFKDPAPVKKVSVYRDGSEVQFEGILSRYKSTGLSRDAFTYLAPGESVEDVFDIASTYDLTSGGPVTIRTEGVVPYATANSTDIAGYISYSSNVLTIDVDGAAAATVSKAITPLDRRTRISSCSGSRQSALTTALRNAASLANAAADAAQSGSASKFSEYFKTTSSSTRQTVAARLRAVAREASSSSSGATTYYCLDPYGYCSPNVLAYTLPSYNIIANCDIFYTYLPPLTSTCHAQDQATTALHEFTHAPGVYSPGTDDLAYGYQAAMGLSSSQAVMNADTYALYANAIYLGC
Relative activity 65° C./60° C.: 90%

B12: JTP016: protease variant of SEQ ID NO: 3: A73C (protein, listed as Thermoascus aurantiacus)
chain: MRLVASLTALVALSVPVFPAAVNVKRASSYLEITLSQVSNTLIKAVVQNTGSDELSFVHLNFFKDPAPVKKVSVYRDGSEVQFEGILSRYKSTGLSRDAFTYLAPGESVEDVFDIASTYDLTSGGPVTIRTEGVVPYATANSTDIAGYISYSSNVLTIDVDGAAAATVSKAITPLDRRTRISSCSGSRQSALTTALRNAASLANAAADAAQSGSASKFSEYFKTTSSSTRQTVAARLRAVAREASSSSSGCTTYYCDDPYGYCSSNVLAYTLPSYNIIANCDIFYTYLPALTSTCHAQDQATTALHEFTHAPGVYSPGTDDLAYGYQAAMGLSSSQAVMNADTYALYANAIYLGC
Relative activity 65° C./60° C.: 52%

B13: JTP019: protease variant of SEQ ID NO: 3: A126V (protein, listed as Thermoascus aurantiacus)
chain: MRLVASLTALVALSVPVFPAAVNVKRASSYLEITLSQVSNTLIKAVVQNTGSDELSFVHLNFFKDPAPVKKVSVYRDGSEVQFEGILSRYKSTGLSRDAFTYLAPGESVEDVFDIASTYDLTSGGPVTIRTEGVVPYATANSTDIAGYISYSSNVLTIDVDGAAAATVSKAITPLDRRTRISSCSGSRQSALTTALRNAASLANAAADAAQSGSASKFSEYFKTTSSSTRQTVAARLRAVAREASSSSSGATTYYCDDPYGYCSSNVLAYTLPSYNIIANCDIFYTYLPALTSTCHAQDQATTVLHEFTHAPGVYSPGTDDLAYGYQAAMGLSSSQAVMNADTYALYANAIYLGC
Relative activity 65° C./60° C.: 69%
